According to patent publication US6362395 (WASHINGTON STATE UNIVERSITY RESEARCH FOUNDATION, dated 2002):

Target: calmodulin (unlabeled, as used in the gel mobility-shift and kinase assays of Example 2) (spinach, UniProt P04353 2-149)
Experiment: gel mobility-shift, non-denaturing PAGE, 0.5 mM CaCl2

B1: synthetic peptide CCaMK 328-340 (peptide, UniProt Q43531 328-340, looked up)
peptide: KLRAAAIASVLSS
binding result: no binding
